B1: MdtF, multidrug efflux HAE-RND transporter from Escherichia coli (natural protein)
chain: MANYFIDRPVFAWVLAIIMMLAGGLAIMNLPVAQYPQIAPPTITVSATYPGADAQTVEDSVTQVIEQNMNGLDGLMYMSSTSDAAGNASITLTFETGTSPDIAQVQVQNKLQLAMPSLPEAVQQQGISVDKSSSNILMVAAFISDNGSLNQYDIADYVASNIKDPLSRTAGVGSVQLFGSEYAMRIWLDPQKLNKYNLVPSDVISQIKVQNNQISGGQLGGMPQAADQQLNASIIVQTRLQTPEEFGKILLKVQQDGSQVLLRDVARVELGAEDYSTVARYNGKPAAGIAIKLAAGANALDTSRAVKEELNRLSAYFPASLKTVYPYDTTPFIEISIQEVFKTLVEAIILVFLVMYLFLQNFRATIIPTIAVPVVILGTFAILSAVGFTINTLTMFGMVLAIGLLVDDAIVVVENVERVIAEDKLPPKEATHKSMGQIQRALVGIAVVLSAVFMPMAFMSGATGEIYRQFSITLISSMLLSVFVAMSLTPALCATILKAAPEGGHKPNALFARFNTLFEKSTQHYTDSTRSLLRCTGRYMVVYLLICAGMAVLFLRTPTSFLPEEDQGVFMTTAQLPSGATMVNTTKVLQQVTDYYLTKEKDNVQSVFTVGGFGFSGQGQNNGLAFISLKPWSERVGEENSVTAIIQRAMIALSSINKAVVFPFNLPAVAELGTASGFDMELLDNGNLGHEKLTQARNELLSLAAQSPNQVTGVRPNGLEDTPMFKVNVNAAKAEAMGVALSDINQTISTAFGSSYVNDFLNQGRVKKVYVQAGTPFRMLPDNINQWYVRNASGTMAPLSAYSSTEWTYGSPRLERYNGIPSMEILGEAAAGKSTGDAMKFMADLVAKLPAGVGYSWTGLSYQEALSSNQAPALYAISLVVVFLALAALYESWSIPFSVMLVVPLGVVGALLATDLRGLSNDVYFQVGLLTTIGLSAKNAILIVEFAVEMMQKEGKTPIEAIIEAARMRLRPILMTSLAFILGVLPLVISHGAGSGAQNAVGTGVMGGMFAATVLAIYFVPVFFVVVEHLFARFKKA
notes: MdtF, RND inner membrane transporter of the MdtEF system, Escherichia coli; gene PCR amplified from E. coli genomic DNA, cloned into pET21a(+) between NdeI and XhoI; wild type; the whole gene appears to have been cloned. ~110 kDa band on SDS-PAGE; source: E. coli BL21ΔacrB acrD mdtABC (NKE1317), purified (2% DDM extraction, Ni-NTA, SEC in 0.03% DDM)
B2: MdtB, multidrug efflux HAE-RND transporter from Escherichia coli (natural protein)
chain: MQVLPPSSTGGPSRLFIMRPVATTLLMVAILLAGIIGYRALPVSALPEVDYPTIQVVTLYPGASPDVMTSAVTAPLERQFGQMSGLKQMSSQSSGGASVITLQFQLTLPLDVAEQEVQAAINAATNLLPSDLPNPPVYSKVNPADPPIMTLAVTSTAMPMTQVEDMVETRVAQKISQISGVGLVTLSGGQRPAVRVKLNAQAIAALGLTSETVRTAITGANVNSAKGSLDGPSRAVTLSANDQMQSAEEYRQLIIAYQNGAPIRLGDVATVEQGAENSWLGAWANKEQAIVMNVQRQPGANIISTADSIRQMLPQLTESLPKSVKVTVLSDRTTNIRASVDDTQFELMMAIALVVMIIYLFLRNIPATIIPGVAVPLSLIGTFAVMVFLDFSINNLTLMALTIATGFVVDDAIVVIENISRYIEKGEKPLAAALKGAGEIGFTIISLTFSLIAVLIPLLFMGDIVGRLFREFAITLAVAILISAVVSLTLTPMMCARMLSQESLRKQNRFSRASEKMFDRIIAAYGRGLAKVLNHPWLTLSVALSTLLLSVLLWVFIPKGFFPVQDNGIIQGTLQAPQSSSFANMAQRQRQVADVILQDPAVQSLTSFVGVDGTNPSLNSARLQINLKPLDERDDRVQKVIARLQTAVDKVPGVDLFLQPTQDLTIDTQVSRTQYQFTLQATSLDALSTWVPQLMEKLQQLPQLSDVSSDWQDKGLVAYVNVDRDSASRLGISMADVDNALYNAFGQRLISTIYTQANQYRVVLEHNTENTPGLAALDTIRLTSSDGGVVPLSSIAKIEQRFAPLSINHLDQFPVTTISFNVPDNYSLGDAVQAIMDTEKTLNLPVDITTQFQGSTLAFQSALGSTVWLIVAAVVAMYIVLGILYESFIHPITILSTLPTAGVGALLALLIAGSELDVIAIIGIILLIGIVKKNAIMMIDFALAAEREQGMSPREAIYQACLLRFRPILMTTLAALLGALPLMLSTGVGAELRRPLGIGMVGGLIVSQVLTLFTTPVIYLLFDRLALWTKSRFARHEEEA
notes: MdtB, RND inner membrane transporter of the MdtABC system, Escherichia coli; gene PCR amplified from E. coli genomic DNA, cloned into pET21a(+) between NdeI and XhoI; wild type; the whole gene appears to have been cloned. ~110 kDa band on SDS-PAGE; also called homotrimeric MdtB; source: E. coli BL21ΔacrB acrD mdtABC (NKE1317), purified (2% DDM extraction, Ni-NTA, SEC in 0.03% DDM); for cryo-EM …

Target: the molecule itself
Assay: SEC; Superdex 200 Increase 10/300 GL, 25 mM HEPES pH 7.5, 100 mM NaCl, 0.03% DDM; elution volume compared with the trimeric molecular weight

Row | Protein | stoichiometry N
1 | B1 | 3
2 | B2 | 3

From publication PMC12802153, “Cryo-EM reveals the structural heterogeneity and conformational flexibility of multidrug efflux pumps MdtB and MdtF” (mBio, 2025)
